Earlier results, collected in paper PMC8780439.

What was measured:
[1] = target: Synaptotagmin I (Homo sapiens) (UniProt P21579)
[2] = target: Synaptotagmin II (Homo sapiens) (UniProt Q8N9I0)
[3] = target: Synaptotagmin II (Mus musculus) (UniProt P46097)
UniProt P46097, sequence (P46097 whole entry): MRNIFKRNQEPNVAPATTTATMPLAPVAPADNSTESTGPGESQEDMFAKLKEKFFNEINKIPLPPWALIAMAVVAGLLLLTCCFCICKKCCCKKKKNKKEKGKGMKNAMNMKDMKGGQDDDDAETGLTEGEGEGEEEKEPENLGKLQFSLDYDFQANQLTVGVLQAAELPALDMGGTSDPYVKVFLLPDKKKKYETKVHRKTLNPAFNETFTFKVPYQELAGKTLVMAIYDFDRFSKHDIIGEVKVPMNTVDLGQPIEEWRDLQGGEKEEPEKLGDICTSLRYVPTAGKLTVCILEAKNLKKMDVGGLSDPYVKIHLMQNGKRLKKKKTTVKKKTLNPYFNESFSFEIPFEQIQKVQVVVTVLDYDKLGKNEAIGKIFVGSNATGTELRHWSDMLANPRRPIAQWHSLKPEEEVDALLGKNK

UniProt Q8N9I0, sequence (Q8N9I0 whole entry): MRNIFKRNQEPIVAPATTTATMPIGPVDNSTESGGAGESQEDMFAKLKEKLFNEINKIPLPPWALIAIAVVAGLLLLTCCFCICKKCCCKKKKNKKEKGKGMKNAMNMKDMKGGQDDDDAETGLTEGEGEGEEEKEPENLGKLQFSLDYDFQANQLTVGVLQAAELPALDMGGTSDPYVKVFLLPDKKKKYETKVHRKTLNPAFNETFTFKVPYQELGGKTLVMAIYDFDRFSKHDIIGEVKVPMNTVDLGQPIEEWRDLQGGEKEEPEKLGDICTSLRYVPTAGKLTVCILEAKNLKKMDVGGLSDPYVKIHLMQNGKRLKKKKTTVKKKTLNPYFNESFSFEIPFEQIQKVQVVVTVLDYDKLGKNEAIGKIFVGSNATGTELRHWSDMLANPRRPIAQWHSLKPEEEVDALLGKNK
UniProt P21579, sequence (P21579 whole entry): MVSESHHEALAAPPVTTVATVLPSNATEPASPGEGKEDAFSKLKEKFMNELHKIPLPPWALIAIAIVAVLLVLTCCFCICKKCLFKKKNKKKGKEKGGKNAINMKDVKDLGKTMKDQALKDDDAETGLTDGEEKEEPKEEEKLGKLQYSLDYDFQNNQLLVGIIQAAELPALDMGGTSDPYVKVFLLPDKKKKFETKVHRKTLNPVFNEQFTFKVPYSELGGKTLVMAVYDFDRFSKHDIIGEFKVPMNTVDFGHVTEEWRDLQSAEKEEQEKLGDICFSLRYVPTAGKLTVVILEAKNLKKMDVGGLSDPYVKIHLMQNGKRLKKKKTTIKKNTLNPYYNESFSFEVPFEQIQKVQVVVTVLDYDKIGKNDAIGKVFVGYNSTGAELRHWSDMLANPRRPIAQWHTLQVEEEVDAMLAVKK

Substance | Kd [1] | Kd [2] | Kd [3]
BoNT/B (from UniProt P10844) | > 20 µM | – | –
BoNT/B heavy chain (from UniProt B1INP5) | – | > 20 µM | 0.13 µM
